Residue numbers refer to the chain shown, from its start. In names and notes the source's numbering stands.

Assay [1] deals with T1, monkey TSLP antigen (R127A, R130S) Protein, His Tag (ACRO, Cat#: TSP-C52H4) (monkey, UniProt A0A7N9CAT7 29-159).
T1 construct: Bought protein
As to the kind of experiment: SPR, His-TSLP captured on anti-His CM5, antibody analyte. For orientation: SPR reads the build-up and loss of mass on a sensor chip optically.

Assay [2] has as its target T2, Trypsin inhibitor type 1-S from Glycine max (Glycine max, UniProt P01070 25-205).
T2 construct: Amine coupled to a CM5 chip
T2 sequence (looked up): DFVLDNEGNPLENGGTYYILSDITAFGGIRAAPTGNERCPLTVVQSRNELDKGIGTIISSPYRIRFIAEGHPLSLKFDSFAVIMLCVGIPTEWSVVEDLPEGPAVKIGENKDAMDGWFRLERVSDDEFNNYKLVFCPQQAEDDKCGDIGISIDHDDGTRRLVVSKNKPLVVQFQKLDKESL
Description: SPR, protein coupled to CM5.

For assay [3], the target named is T3, Lysozyme solution from chicken egg (chicken, UniProt P00698 19-147).
T3 construct: Amine coupled to a CM5 chip
T3 sequence (P00698 19-147 limits assumed): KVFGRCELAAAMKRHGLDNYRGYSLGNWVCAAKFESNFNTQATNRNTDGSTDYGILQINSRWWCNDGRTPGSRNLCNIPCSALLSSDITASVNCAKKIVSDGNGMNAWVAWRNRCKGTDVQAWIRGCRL
As to the kind of experiment: SPR, protein coupled to CM5.

The target in assay [4] is T4, human TSLP with His tag (ACRO, TSP-H52Ha) (human, UniProt Q969D9 29-159).
T4 construct: Bought protein; also called human TSLP antigens; Human TSLP (Acro, #TSP-H52Ha); not shown: His tag
Description: SPR, His-TSLP captured on anti-His CM5, antibody analyte.

For assay [5], the target named is Human TSLP (form and source not stated) (human, UniProt Q969D9 29-159, limits assumed). Description: cell-based or functional assay.

T1 sequence (A0A7N9CAT7 entry or part of it R127A R130S R127A R130S limits assumed, form in doubt): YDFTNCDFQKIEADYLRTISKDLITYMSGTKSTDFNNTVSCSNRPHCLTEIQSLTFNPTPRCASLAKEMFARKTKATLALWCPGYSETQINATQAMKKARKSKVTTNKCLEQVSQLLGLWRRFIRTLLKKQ

B1: 900792 chimera (antibody, human IgG1, kappa, L234A L235A, V domains shown)
VH: QVQLQQSGAELVRPGTSVKVSCKASGYAFTNYLIEWVKQRPGQGLEWIGVINPESGDTYYSEKFKGKATLTADKSSSTAYMQLSSLTSEDSAVYFCAKESLTGSSYDYWGQGTTLTVSS
VL: DIQMTQSPASLSASVGESVTITCRASENIYSNLVWYQQKQGKSPQLLVYGARNLADGVPSRFSGSGSGTQFSLKINSLQPEDFGNYYCQHFYETPLTFGTGTKLEIKR
notes: Human-mouse chimera of clone 77E6; human IgG1 constant region with L234A and L235A (Eu), human kappa
As usually defined, the Kd is a measure of binding affinity in units of concentration. As a reminder, the koff is the rate constant with which the complex falls apart. One may read the kon as the rate constant with which the complex forms. On to B1, for which, in assay [1], binding was put at a Kd of 4.58 nM, the koff worked out at 0.0159 s⁻¹ and the kon was found to be 3.47e+06 M⁻¹ s⁻¹. Further, in assay [2], the “binding response (RU)” value is 7.2 RU. In addition, in assay [3], the “binding response (RU)” value was 2.1 RU. In assay [4], this molecule displayed a dissociation constant Kd of 0.223 nM, a dissociation rate constant (koff) of 0.000157 s⁻¹ and a kon of 703000 M⁻¹ s⁻¹.

B2: 900792-huH2L2 (antibody, human IgG1, kappa, L234A L235A, V domains shown)
VH: QVQLVQSGAEVKKPGASVKVSCKASGYAFTNYLIEWVRQAPGQGLEWMGIINPESGDTYYAQKFQGRVTMTADKSTSTAYMELSSLRSEDSAVYFCAKESLTGSSYDYWGQGTTLTVSS
VL: DIQMTQSPSSLSASVGDRVTITCRASENIYSNLVWYQQKPGKAPQLLVYGARNLQSGVPSRFSGSGSGTQFSLTISSLQPEDFATYYCQHFYETPLTFGTGTKLEIKR
notes: Humanized
Consider B2, for which the dissociation constant Kd in assay [1] stood at 5.06 nM; in assay [4], 0.172 nM. Also, the koff in assay [1] was 0.0165 s⁻¹; in assay [4], 0.000126 s⁻¹. Besides, the results for the kon in assay [1] and in assay [4] were 3.27e+06 M⁻¹ s⁻¹ and 733000 M⁻¹ s⁻¹, respectively. In addition, the figures for the “binding response (RU)” value in assay [2] and in assay [3] were 6.8 RU and 1.4 RU, respectively. Further, the “TARC in PBMC supernatant (ELISA)” value in assay [5] was ~10 times better than Tezepelumab.

B3: 900792-huH3L3 (antibody, human IgG1, kappa, L234A L235A, V domains shown)
VH: B2 VH with V5Q, I50V, A61S
VL: B2 VL with V48I, S72T
notes: Humanized
In assay [1], B3 registered a Kd of 6.01 nM, a dissociation rate constant (koff) of 0.087 s⁻¹ and a kon of 1.45e+07 M⁻¹ s⁻¹. Moreover, in assay [2], the “binding response (RU)” value stood at 8.7 RU. Besides, the “binding response (RU)” value in assay [3] is 1.9 RU. In assay [4], this molecule showed a dissociation constant (Kd) of 0.189 nM, an off-rate constant (koff) of 0.000143 s⁻¹ and a kon of 755000 M⁻¹ s⁻¹. Besides, in assay [5], the “TARC in PBMC supernatant (ELISA)” value was ~10 times better than Tezepelumab.

B4: 900792-huH1L1 (antibody, human IgG1, kappa, L234A L235A, V domains shown)
VH: B2 VH with V5Q, M48I, I50V, A61S, Q62E, M70L
VL: B2 VL with Q55A, S56D
notes: Humanized
Consider B4, for which, in assay [1], the dissociation constant Kd was determined as 8.16 nM, the dissociation rate constant (koff) turned out to be 0.00339 s⁻¹ and the association rate constant (kon) was 416000 M⁻¹ s⁻¹. The “binding response (RU)” value in assay [2] amounted to 5.7 RU. Further, the “binding response (RU)” value in assay [3] was found to be 1.8 RU. In addition, in assay [4], the affinity, expressed as Kd, was 0.126 nM; the dissociation rate constant (koff) came out at 9.45e-05 s⁻¹; the on-rate constant (kon) turned out to be 748000 M⁻¹ s⁻¹. Besides, the “TARC in PBMC supernatant (ELISA)” value in assay [5] was ~10 times better than Tezepelumab.

B5: 900792-huH1L2 (antibody, human IgG1, kappa, L234A L235A, V domains shown)
VH: B2 VH with V5Q, M48I, I50V, A61S, Q62E, M70L
VL: B2 VL
notes: Humanized
In assay [1], B5 had a Kd of 8.23 nM, a koff of 0.00274 s⁻¹ and a kon of 333000 M⁻¹ s⁻¹. Besides, the “binding response (RU)” value in assay [2] stood at 6 RU. Further, the “binding response (RU)” value in assay [3] worked out at 2 RU. In assay [4], the equilibrium dissociation constant (Kd) amounted to 0.176 nM, the dissociation rate constant (koff) was 0.000126 s⁻¹ and the kon is 713000 M⁻¹ s⁻¹. For the same molecule, in assay [5], the “TARC in PBMC supernatant (ELISA)” value was ~10 times better than Tezepelumab.

B6: 900792-huH4L1 (antibody, human IgG1, kappa, L234A L235A, V domains shown)
VH: B2 VH with M70L, F95Y
VL: B2 VL with Q55A, S56D
notes: Humanized
In assay [1], B6 returned a Kd of 4.17 nM, a koff of 0.00873 s⁻¹ and an on-rate constant (kon) of 2.09e+06 M⁻¹ s⁻¹. Further, in assay [2], the “binding response (RU)” value turned out to be 9.6 RU. The “binding response (RU)” value in assay [3] was found to be 4 RU. In assay [4], this molecule returned a dissociation constant (Kd) of 0.117 nM, an off-rate constant (koff) of 8.15e-05 s⁻¹ and an on-rate (kon) of 694000 M⁻¹ s⁻¹. For the same molecule, in assay [5], the “TARC in PBMC supernatant (ELISA)” value was ~10 times better than Tezepelumab.

B7: 900792-huH1L3 (antibody, human IgG1, kappa, L234A L235A, V domains shown)
VH: B2 VH with V5Q, M48I, I50V, A61S, Q62E, M70L
VL: B2 VL with V48I, S72T
notes: Humanized
In assay [1], B7 came in with a Kd of 7.99 nM, a koff of 0.00321 s⁻¹ and a kon of 402000 M⁻¹ s⁻¹. Further, in assay [2], the “binding response (RU)” value came to 5.9 RU. For the same molecule, the “binding response (RU)” value in assay [3] turned out to be 1 RU. In assay [4], this molecule gave a Kd of 0.0964 nM, an off-rate (koff) of 7.02e-05 s⁻¹ and an association rate constant (kon) of 728000 M⁻¹ s⁻¹. In assay [5], the “TARC in PBMC supernatant (ELISA)” value is ~10 times better than Tezepelumab.

B8: 900792-huH2L1 (antibody, human IgG1, kappa, L234A L235A, V domains shown)
VH: B2 VH
VL: B2 VL with Q55A, S56D
notes: Humanized
As for B8, the Kd in assay [1] was 3.82 nM; in assay [4] it was 0.141 nM. Moreover, the off-rate (koff) in assay [1] amounted to 0.0122 s⁻¹; in assay [4], 0.00011 s⁻¹. Moreover, the figures for the kon in assay [1] and in assay [4] were 3.19e+06 M⁻¹ s⁻¹ and 782000 M⁻¹ s⁻¹, respectively. The “binding response (RU)” value was 6.9 RU in assay [2] and 0.8 RU in assay [3]. The “TARC in PBMC supernatant (ELISA)” value in assay [5] is ~10 times better than Tezepelumab.

B9: 900792-huH2L3 (antibody, human IgG1, kappa, L234A L235A, V domains shown)
VH: B2 VH
VL: B2 VL with V48I, S72T
notes: Humanized
For the molecule B9, the Kd is 5.88 nM in assay [1] and 0.172 nM in assay [4]. In addition, the figures for the koff in assay [1] and in assay [4] were 0.0189 s⁻¹ and 0.000126 s⁻¹, respectively. Moreover, the on-rate constant (kon) in assay [1] turned out to be 3.22e+06 M⁻¹ s⁻¹; in assay [4] it was 733000 M⁻¹ s⁻¹. The “binding response (RU)” value in assay [2] was 6.8 RU; in assay [3], 5.9 RU. For the same molecule, the “TARC in PBMC supernatant (ELISA)” value in assay [5] was ~10 times better than Tezepelumab.

B10: 900792-huH3L1 (antibody, human IgG1, kappa, L234A L235A, V domains shown)
VH: B2 VH with V5Q, I50V, A61S
VL: B2 VL with Q55A, S56D
notes: Humanized
As to B10, the Kd in assay [1] is 6.22 nM; in assay [4], 0.175 nM. Further, the off-rate (koff) in assay [1] amounted to 0.0362 s⁻¹; in assay [4], 0.000129 s⁻¹. Besides, the kon in assay [1] stood at 5.82e+06 M⁻¹ s⁻¹; in assay [4], 737000 M⁻¹ s⁻¹. For the same molecule, the “binding response (RU)” value in assay [2] came to 5.6 RU; in assay [3] it was 0.9 RU. Moreover, the “TARC in PBMC supernatant (ELISA)” value in assay [5] was ~10 times better than Tezepelumab.

B11: 900792-huH3L2 (antibody, human IgG1, kappa, L234A L235A, V domains shown)
VH: B2 VH with V5Q, I50V, A61S
VL: B2 VL
notes: Humanized
For B11, in assay [1], the Kd amounted to 5.05 nM, the koff came out at 0.0327 s⁻¹ and the on-rate constant (kon) came to 6.47e+06 M⁻¹ s⁻¹. Also, the “binding response (RU)” value in assay [2] amounted to 8.1 RU. Further, in assay [3], the “binding response (RU)” value worked out at 1.5 RU. In addition, in assay [4], the Kd is 0.131 nM, the koff came out at 0.000108 s⁻¹ and the kon stood at 822000 M⁻¹ s⁻¹. The “TARC in PBMC supernatant (ELISA)” value in assay [5] is ~10 times better than Tezepelumab.

B12: 900792-huH4L2 (antibody, human IgG1, kappa, L234A L235A, V domains shown)
VH: B2 VH with M70L, F95Y
VL: B2 VL
notes: Humanized
In assay [1], B12 had a Kd of 3.99 nM, an off-rate (koff) of 0.013 s⁻¹ and an association rate constant (kon) of 3.27e+06 M⁻¹ s⁻¹. Moreover, the “binding response (RU)” value in assay [2] is 8.6 RU. Also, the “binding response (RU)” value in assay [3] came to 3.3 RU. Besides, in assay [4], the affinity, expressed as Kd, was 0.234 nM; the off-rate (koff) was 0.000174 s⁻¹; the kon was 743000 M⁻¹ s⁻¹. Besides, the “TARC in PBMC supernatant (ELISA)” value in assay [5] was ~10 times better than Tezepelumab.

B13: 900792-huH4L3 (antibody, human IgG1, kappa, L234A L235A, V domains shown)
VH: B2 VH with M70L, F95Y
VL: B2 VL with V48I, S72T
notes: Humanized
As to B13, the Kd turned out to be 4.18 nM in assay [1] and 0.157 nM in assay [4]. Moreover, the koff in assay [1] was 0.00989 s⁻¹; in assay [4], 0.000121 s⁻¹. In addition, the association rate constant (kon) in assay [1] was determined as 2.37e+06 M⁻¹ s⁻¹; in assay [4] it was 771000 M⁻¹ s⁻¹. The “binding response (RU)” value came to 6.6 RU in assay [2] and 2.4 RU in assay [3]. Further, in assay [5], the “TARC in PBMC supernatant (ELISA)” value was ~10 times better than Tezepelumab.
